In US20170320919A1:

Key:
[1] = biological target: human polyclonal IgG (Gammanorm) (human); assay: SPR (Biacore), ligand amine-coupled to CM5 chip, 1 mg/ml IgG flowed; IgG binding signal left after 100 cycles of 100 mM NaOH, 10 min
[2] = biological target: human polyclonal IgG (Gammanorm) (human); assay: SPR (Biacore), retained IgG binding capacity after 100 NaOH cycles against reference Protein L
[3] = biological target: Purified Dab prepared from heat-treated E. coli supernatant; assay: column chromatography, ligand coupled to agarose beads at 9.5 mg/ml, 1 mg/ml Dab feed, residence time 4 min
[4] = biological target: Purified Fab prepared from a papain-digested IgG mAb; assay: column chromatography, ligand coupled to agarose beads at 9.5 mg/ml, 1 mg/ml Fab feed, residence time 4 min
[5] = biological target: human polyclonal IgG (Gammanorm) (human); assay: SPR (Biacore), ligand amine-coupled to CM5 chip, 1 mg/ml IgG flowed; IgG binding signal left after 96 cycles of 100 mM NaOH, 10 min
[6] = biological target: human polyclonal IgG (Gammanorm) (human); assay: SPR (Biacore), retained IgG binding capacity after 96 NaOH cycles against reference Domain 3
[7] = biological target: Purified Fab prepared from a papain-digested IgG mAb; assay: column chromatography, ligand coupled to agarose beads at 11.0 mg/ml, 1 mg/ml Fab feed, residence time 4 min
[8] = biological target: Purified Dab prepared from heat-treated E. coli supernatant; assay: column chromatography, ligand coupled to agarose beads at 11.0 mg/ml, 1 mg/ml Dab feed, residence time 4 min
[9] = biological target: human polyclonal IgG (Gammanorm) (human); assay: SPR (Biacore), retained IgG binding capacity after 96 NaOH cycles against reference Domain 3 (second series)
[10] = biological target: human polyclonal IgG (Gammanorm) (human); assay: SPR (Biacore), ligand amine-coupled to CM5 chip, 1 mg/ml IgG flowed; IgG binding signal left after 96 cycles of 100 mM NaOH, 10 min (second series, with the Q19 mutants)
[11] = biological target: Purified Dab prepared from heat-treated E. coli supernatant; assay: column chromatography, ligand coupled to agarose beads at 8.8 mg/ml, 1 mg/ml Dab feed, residence time 4 min
[12] = biological target: Purified Fab prepared from a papain-digested IgG mAb; assay: column chromatography, ligand coupled to agarose beads at 8.8 mg/ml, 1 mg/ml Fab feed, residence time 4 min
[13] = biological target: human polyclonal IgG (Gammanorm) (human); assay: SPR (Biacore), retained IgG binding capacity after 96 NaOH cycles against reference Protein L

Binder	Retained capacity after 100 cycles (%) [1] [%]	Sample/ref. ratio [2]	Retained capacity after 96 cycles (%) [5] [%]	Sample/ref. ratio [6]	other results
D3(N10Q, N45A, N60Q)2 (designed binder) PKEEVTIKAQLIYADGKTQTAEFKGTFEEATAEAYRYADLLAKEAGKYTVDVADKGYTLQIKFAGKEKTPEEPKEEVTIKAQLIYADGKTQTAEFKGTFEEATAEAYRYADLLAKEAGKYTVDVADKGYTLQIKFAGKEKTPEE	59	2.56			QB10 Dab (dynamic binding capacity at 10% breakthrough) [3]: 15.4 mg/mL; QB10 Fab (dynamic binding capacity at 10% breakthrough) [4]: 19.3 mg/mL
Domain 4 (D4) (protein) AQVPKEEVTIKANLIYADGKTQTAEFKGTFAEATAEAYRYADLLAKENGKYTADLEDGGYTINIRFAGKKVDEKPEEC			26	0.84	
D3(N10Q, N45A, N60Q)6-cys (designed binder) PKEEVTIKAQLIYADGKTQTAEFKGTFEEATAEAYRYADLLAKEAGKYTVDVADKGYTLQIKFAGKEKTPEEPKEEVTIKAQLIYADGKTQTAEFKGTFEEATAEAYRYADLLAKEAGKYTVDVADKGYTLQIKFAGKEKTPEEPKEEVTIKAQLIYADGKTQTAEFKGTFEEATAEAYRYADLLAKEAGKYTVDVADKGYTLQIKFAGKEKTPEEPKEEVTIKAQLIYADGKTQTAEFKGTFEEATAEAYRYADLLAKEAGKYTVDVADKGYTLQIKFAGKEKTPEEPKEEVTIKAQLIYADGKTQTAEFKGTFEEATAEAYRYADLLAKEAGKYTVDVADKGYTLQIKFAGKEKTPEEPKEEVTIKAQLIYADGKTQTAEFKGTFEEATAEAYRYADLLAKEAGKYTVDVADKGYTLQIKFAGKEKTPEEC	56	2.43			
D3(N10Q, N45A, N60Q)6 (designed binder) PKEEVTIKAQLIYADGKTQTAEFKGTFEEATAEAYRYADLLAKEAGKYTVDVADKGYTLQIKFAGKEKTPEEPKEEVTIKAQLIYADGKTQTAEFKGTFEEATAEAYRYADLLAKEAGKYTVDVADKGYTLQIKFAGKEKTPEEPKEEVTIKAQLIYADGKTQTAEFKGTFEEATAEAYRYADLLAKEAGKYTVDVADKGYTLQIKFAGKEKTPEEPKEEVTIKAQLIYADGKTQTAEFKGTFEEATAEAYRYADLLAKEAGKYTVDVADKGYTLQIKFAGKEKTPEEPKEEVTIKAQLIYADGKTQTAEFKGTFEEATAEAYRYADLLAKEAGKYTVDVADKGYTLQIKFAGKEKTPEEPKEEVTIKAQLIYADGKTQTAEFKGTFEEATAEAYRYADLLAKEAGKYTVDVADKGYTLQIKFAGKEKTPEE	58	2.52			QB10 Fab (dynamic binding capacity at 10% breakthrough) [7]: 21.1 mg/mL; QB10 Dab (dynamic binding capacity at 10% breakthrough) [8]: 16.7 mg/mL
D3(N10Q, N45A, N60Q)4-cys (designed binder) PKEEVTIKAQLIYADGKTQTAEFKGTFEEATAEAYRYADLLAKEAGKYTVDVADKGYTLQIKFAGKEKTPEEPKEEVTIKAQLIYADGKTQTAEFKGTFEEATAEAYRYADLLAKEAGKYTVDVADKGYTLQIKFAGKEKTPEEPKEEVTIKAQLIYADGKTQTAEFKGTFEEATAEAYRYADLLAKEAGKYTVDVADKGYTLQIKFAGKEKTPEEPKEEVTIKAQLIYADGKTQTAEFKGTFEEATAEAYRYADLLAKEAGKYTVDVADKGYTLQIKFAGKEKTPEEC	54	2.35			
Domain 2 (D2) (protein) AQVPKEEVTIKANLIYADGKTQTAEFKGTFEEAAAEAYRYADALKKDNGEYTVDVADKGYTLNIKFAGKEKTPEEC			22	0.71	
D3(N10Q, N45A, N60Q)4 (designed binder) PKEEVTIKAQLIYADGKTQTAEFKGTFEEATAEAYRYADLLAKEAGKYTVDVADKGYTLQIKFAGKEKTPEEPKEEVTIKAQLIYADGKTQTAEFKGTFEEATAEAYRYADLLAKEAGKYTVDVADKGYTLQIKFAGKEKTPEEPKEEVTIKAQLIYADGKTQTAEFKGTFEEATAEAYRYADLLAKEAGKYTVDVADKGYTLQIKFAGKEKTPEEPKEEVTIKAQLIYADGKTQTAEFKGTFEEATAEAYRYADLLAKEAGKYTVDVADKGYTLQIKFAGKEKTPEE	60	2.61			QB10 Dab (dynamic binding capacity at 10% breakthrough) [11]: 15.9 mg/mL; QB10 Fab (dynamic binding capacity at 10% breakthrough) [12]: 19.3 mg/mL
Domain 1 (D1) (protein) AQVSEEEVTIKANLIFANGSTQTAEFKGTFEKATSEAYAYADTLKKDNGEYTVDVADKGYTLNIKFAGKEKTPEEC			13	0.42	
D3(Q19E)1 (designed binder) PKEEVTIKANLIYADGKTETAEFKGTFEEATAEAYRYADLLAKENGKYTVDVADKGYTLNIKFAGKEKTPEE			31		Sample/ref. ratio [9]: 1.11
D3(N45A, N60Q)1 (designed binder) PKEEVTIKANLIYADGKTQTAEFKGTFEEATAEAYRYADLLAKEAGKYTVDVADKGYTLQIKFAGKEKTPEE			59	1.9	
D3(N10Q, N45A)1 (designed binder) PKEEVTIKAQLIYADGKTQTAEFKGTFEEATAEAYRYADLLAKEAGKYTVDVADKGYTLNIKFAGKEKTPEE			48	1.55	
Protein L (protein) AIHNRAKEETPETPETDSEEEVTIKANLIFANGSTQTAEFKGTFEKATSEAYAYADTLKKDNGEYTVDVADKGYTLNIKFAGKEKTPEEPKEEVTIKANLIYADGKTQTAEFKGTFEEATAEAYRYADALKKDNGEYTVDVADKGYTLNIKFAGKEKTPEEPKEEVTIKANLIYADGKTQTAEFKGTFEEATAEAYRYADLLAKENGKYTVDVADKGYTLNIKFAGKEKTPEEPKEEVTIKANLIYADGKTQTAEFKGTFAEATAEAYRYADLLAKENGKYTADLEDGGYTINIRFAGKKVDEKPEE	23	1	28		Sample/ref. ratio [13]: 1

The next lines start with results.

Retained capacity after 100 cycles (%) [1] [%]	Sample/ref. ratio [2]	Retained capacity after 96 cycles (%) [5] [%]	Sample/ref. ratio [6]	Binder	other results
59	2.56			D3(N10Q, N45A, N60Q)2-cys (designed binder) PKEEVTIKAQLIYADGKTQTAEFKGTFEEATAEAYRYADLLAKEAGKYTVDVADKGYTLQIKFAGKEKTPEEPKEEVTIKAQLIYADGKTQTAEFKGTFEEATAEAYRYADLLAKEAGKYTVDVADKGYTLQIKFAGKEKTPEEC	
		31	1	Domain 3 (D3) (protein) AQVPKEEVTIKANLIYADGKTQTAEFKGTFEEATAEAYRYADLLAKENGKYTVDVADKGYTLNIKFAGKEKTPEEC	Sample/ref. ratio [9]: 1; Retained capacity after 96 cycles (%) [10]: 28%
		38		Domain 3 tetramer (designed binder) PKEEVTIKANLIYADGKTQTAEFKGTFEEATAEAYRYADLLAKENGKYTVDVADKGYTLNIKFAGKEKTPEEPKEEVTIKANLIYADGKTQTAEFKGTFEEATAEAYRYADLLAKENGKYTVDVADKGYTLNIKFAGKEKTPEEPKEEVTIKANLIYADGKTQTAEFKGTFEEATAEAYRYADLLAKENGKYTVDVADKGYTLNIKFAGKEKTPEEPKEEVTIKANLIYADGKTQTAEFKGTFEEATAEAYRYADLLAKENGKYTVDVADKGYTLNIKFAGKEKTPEE	Sample/ref. ratio [13]: 1.36
		44	1.42	D3(N45A)1 (designed binder) PKEEVTIKANLIYADGKTQTAEFKGTFEEATAEAYRYADLLAKEAGKYTVDVADKGYTLNIKFAGKEKTPEE	
		28		D3(Q19A)1 (designed binder) PKEEVTIKANLIYADGKTATAEFKGTFEEATAEAYRYADLLAKENGKYTVDVADKGYTLNIKFAGKEKTPEE	Sample/ref. ratio [9]: 1
		59	1.9	D3(N10Q, N45A, N60Q)1 (designed binder) PKEEVTIKAQLIYADGKTQTAEFKGTFEEATAEAYRYADLLAKEAGKYTVDVADKGYTLQIKFAGKEKTPEE	
